The text below walks through data of article doi:10.1101/2021.04.02.438172.

A word on the stoichiometry N: it is a count of units in the complex or per binding partner.

Experiment [1] has as its target Sandercyanin His-108-Ala (Stizostedion vitreum (formerly Sander vitreus), walleye).
For experiment [2], the target named is Sandercyanin Phe-106-Ala (Stizostedion vitreum (formerly Sander vitreus), walleye).
Experiment [3] addresses Sandercyanin Tyr-142-Ala (Y142A) (Stizostedion vitreum (formerly Sander vitreus), walleye).
The target in experiment [4] is wild-type Sandercyanin (Stizostedion vitreum (formerly Sander vitreus), walleye). Description: SEC.

With “Sandercyanin His-108-Ala (natural protein)”, the stoichiometry N in experiment [1] amounted to 4. In the case of “Sandercyanin Phe-106-Ala (natural protein)”, the stoichiometry N in experiment [2] was determined as 4.

As for “Sandercyanin Tyr-142-Ala (Y142A) (natural protein)”, the stoichiometry N in experiment [3] is 4.

In the case of “wild-type Sandercyanin (natural protein)”, the stoichiometry N in experiment [4] was 4.
